Measurements published in patent US20050064514A1 (MacroGenics, published 2005).
Numbering of substitutions follows the chain as printed. Names and notes keep the numbering of the source.

B1: ch4-4-20 K288N, A330S, P396L (antibody)
chain: EPKSCDKTHTCPPCPAPELLGGPSVFLFPPKPKDTLMISRTPEVTCVVVDVSHEDPEVKFNWYVDGVEVHNANTKPREEQYNSTYRVVSVLTVLHQDWLNGKEYKCKVSNKALPSPIEKTISKAKGQPREPQVYTLPPSREEMTKNQVSLTCLVKGFYPSDIAVEWESNGQPENNYKTTPLVLDSDGSFFLYSKLTVDKSRWQQGNVFSCSVMHEALHNHYTQKSLSLSPGK
B2: ch4-4-20 Y319F, P352L, P396L (antibody)
chain: B1 chain with N73K, Y104F, S115A, P137L
B3: ch4-4-20 E293V, Q295E, A327T (antibody)
chain: B1 chain with N73K, E78V, Q80E, A112T, S115A, L181P
B4: ch4-4-20 MgFc66 (A330V, G427M) (antibody)
chain 1: not shown
chain 2: DVVMTQTPLSLPVSLGDQASISCRSSQSLVHSNGNTYLRWYLQKPGQSPKVLIYKVSNRFSGVPDRFSGSGSGTDFTLKISRVEAEDLGVYFCSQSTHVPWTFGGGTKLEIKRTVAAPSVFIFPPSDEQLKSGTASVVCLLNNFYPREAKVQWKVDNALQSGNSQESVTEQDSKDSTYSLSSTLTLSKADYEKHKVYACEVTHQGLSSPVTKSFNRGEC

Experiments:
[1] = target: T1, FcγRIIB-Fc fusion protein (soluble dimeric FcγRIIB) (human, UniProt P31994 43-217); assay: BIAcore separate fit
T1 construct: extracellular domain; also called FcRIIB-Fc; FcR2B; not shown: hinge-CH2-CH3 domain of human IgG2
T1 sequence (looked up): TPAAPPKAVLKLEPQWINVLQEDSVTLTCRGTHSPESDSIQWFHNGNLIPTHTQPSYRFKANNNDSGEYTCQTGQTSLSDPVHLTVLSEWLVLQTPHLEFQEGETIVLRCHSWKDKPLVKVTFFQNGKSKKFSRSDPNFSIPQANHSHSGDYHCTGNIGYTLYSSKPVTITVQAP

[2] = target: T1, FcγRIIB-Fc fusion protein (soluble …); assay: BIAcore
[3] = target: T1, FcγRIIB-Fc fusion protein (soluble …); assay: BIAcore ch4-4-20

Binder	koff [1]	koff [2]	Koff WT/Mut [3]
B1	0.05 s⁻¹	0.05 s⁻¹	–
B2	–	0.041 s⁻¹	2.29
B3	–	0.074 s⁻¹	1.3
B4	–	–	0.62
